Reference: patent US20240132599A1
Values joined by “and” are separate entries in the source; they are usually repeats but may differ in a detail not shown here. Equal entries are not always repeated.

Biological target: Vδ1 TCR on human Vδ1-positive γδ T cells (human), A0A1B0
Experiment: cell-based or functional assay

Sequence of Vδ1 TCR on human Vδ1-positive γδ T cells (human), A0A1B0 (A0A1B0 entry or part of it mutant limits assumed): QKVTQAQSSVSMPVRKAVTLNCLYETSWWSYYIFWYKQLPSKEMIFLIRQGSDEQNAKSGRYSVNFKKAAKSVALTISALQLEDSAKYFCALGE

Row | Binder | IC50 TCR DR (no THP-1) | IC90 TCR DR (noTHP-1) | IC50 TCR downregulation (soluble assay, added in solution) [nM]
1 | ADT1-4 (parental) (antibody, IgG1, V domains shown) VH: QVQLQQSGPGLVKPSQTLSLTCAISGDSVSSKSAAWNWIRQSPSRGLEWLGRTYYRSKWSTDYAASVKSRITINPDTSKNQLSLQLNSVTPEDTAVYYCARTWSGYVDVWGQGTLVTVSS VL: ASDIQMTQSPPALSASVGDRVTITCRASQDINDWLAWYQHKPGKAPKLLIYDASSLESGVPSRFSGSGSGTEFTLTISSLQPDDFATYYCQQSYSTPQVTFGQGTRLEIK |  |  | 38.3
2 | ADT1-4-19 (antibody, IgG1, V domains shown) VH: EVQLQQSGPGLVKPSQTLSLTCAISGDSVSSKSAAWNWIRQSPSRGLEWLGRTYYRSKWSTDYAASVKSRITINPDTSKNQLSLQLNSVTPEDTAVYYCARTWVGYVDRWGQGTLVTVSS VL: DIQMTQSPPALSASVGDRVTITCRASQDINDWLAWYQHKPGKAPKLLIYDASSLESGVPLRFSGSGSGTEFTLTISSLQPDDFATYYCQQKYSTPKVTFGQGTRLEIK | 0.37 nM and 0.367 nM | 1.6 nM and 1.58 nM | 
3 | ADT1-4-31 (antibody, IgG1, V domains shown) VH: EVQLQQSGPGLVKPSQTLSLTCAISGDSVSSKSAAWNWIRQSPSRGLEWLGRTYYRSKWSTDYAASVKSRITINPDTSKNQLSLQLNSVTPEDTAVYYCARTWVGYADVWGQGTLVTVSS VL: DIQMTQSPPALSASVGDRVTITCRASQDINDWLAWYQHKPGKAPKLLIYDASSLESGVPLRFSGSGSGTEFTLTISSLQPDDFATYYCQQRYSTPPVTFGQGTRLEIK | 0.24 nM and 0.245 nM | 1.1 nM and 1.09 nM | 
4 | ADT1-4-1 (antibody, IgG1, V domains shown) VH: EVQLQQSGPGLVKPSQTLSLTCAISGDSVSSKSAAWNWIRQSPSRGLEWLGRTYYRSKWSTDYAASVKSRITINPDTSKNQLSLQLNSVTPEDTAVYYCARTWVGYADVWGQGTLVTVSS VL: DIQMTQSPPALSASVGDRVTITCRASQDINDWLAWYQHKPGKAPKLLIYDASSLESGVPLRFSGSGSGTEFTLTISSLQPDDFATYYCQQRYSTPIVTFGQGTRLEIK | 0.36 nM | 0.67 nM | 
5 | ADT1-4-2 (antibody, IgG1, V domains shown) VH: EVQLQQSGPGLVKPSQTLSLTCAISGDSVSSKSAAWNWIRQSPSRGLEWLGRTYYRSKWSTDYAASVKSRITINPDTSKNQLSLQLNSVTPEDTAVYYCARTWVGYVDRWGQGTLVTVSS VL: DIQMTQSPPALSASVGDRVTITCRASQDINDWLAWYQHKPGKAPKLLIYDASSLESGVPLRFSGSGSGTEFTLTISSLQPDDFATYYCQQKYSAPQVTFGQGTRLEIK | 0.31 nM | 0.83 nM and 0.834 nM | 
6 | ADT1-4-6 (antibody, IgG1, V domains shown) VH: EVQLQQSGPGLVKPSQTLSLTCAISGDSVSSKSAAWNWIRQSPSRGLEWLGRTYYRSKWSTDYAASVKSRITINPDTSKNQLSLQLNSVTPEDTAVYYCARTWAGYPDVWGQGTLVTVSS VL: DIQMTQSPPALSASVGDRVTITCRASQDINDWLAWYQHKPGKAPKLLIYDASSLESGVPLRFSGSGSGTEFTLTISSLQPDDFATYYCQQKYKTPQVTFGQGTRLEIK | 0.48 nM | 1.9 nM and 1.91 nM | 
7 | ADT1-4-21 (antibody, IgG1, V domains shown) VH: EVQLQQSGPGLVKPSQTLSLTCAISGDSVSSKSVAWNWIRQSPSRGLEWLGRTYYRSKWSTDYAASVKSRITINPDTSKNQLSLQLNSVTPEDTAVYYCARTWADYVDVWGQGTLVTVSS VL: DIQMTQSPPALSASVGDRVTITCRASQDINDWLAWYQHKPGKAPKLLIYDASSLESGVPLRFSGSGSGTEFTLTISSLQPDDFATYYCQQKYSTPWVTFGQGTRLEIK | 0.27 nM and 0.266 nM | 0.89 nM and 0.892 nM | 
8 | ADT1-4-86 (antibody, IgG1, V domains shown) VH: EVQLQQSGPGLVKPSQTLSLTCAISGDSVSSKSVAWNWIRQSPSRGLEWLGRTYYRSKWSTDYAASVKSRITINPDTSKNQLSLQLNSVTPEDTAVYYCARTWLGNVDVWGQGTLVTVSS VL: DIQMTQSPPALSASVGDRVTITCRASQDINDWLAWYQHKPGKAPKLLIYDASSLESGVPLRFSGSGSGTEFTLTISSLQPDDFATYYCQQKYSEPQVTFGQGTRLEIK | 0.31 nM and 0.307 nM | 1 nM | 
9 | ADT1-4-53 (antibody, IgG1, V domains shown) VH: EVQLQQSGPGLVKPSQTLSLTCAISGDSVSSKSVAWNWIRQSPSRGLEWLGRTYYRSKWSTDYAASVKSRITINPDTSKNQLSLQLNSVTPEDTAVYYCARTWADYVDVWGQGTLVTVSS VL: DIQMTQSPPALSASVGDRVTITCRASQDINDWLAWYQHKPGKAPKLLIYDASSLESGVPLRFSGSGSGTEFTLTISSLQPDDFATYYCQQKYSTPQLTFGQGTRLEIK | 0.25 nM and 0.254 nM | 0.7 nM and 0.698 nM | 

The remaining lines, values ahead:

Row | IC50 TCR DR (no THP-1) | IC90 TCR DR (noTHP-1) | IC50 TCR downregulation (soluble assay, added in solution) [nM] | Binder
10 | 0.16 nM and 0.164 nM | 1 nM and 1.04 nM |  | ADT1-7-20 (antibody, IgG1, V domains shown) VH: EVQLVESGGGLVKPGGSLRLSCAASGFTFSDYYMSWIRQAPGKGLEWVSYISSSGSTIYYADSVKGRFTISRDNAKNSLYLQMNSLRAEDTAVYYCARVDYQEAFDIWGQGTLVTVSS VL: DIQMTQSPSSLSASVGDRVTIACRAGQSIGTYLNWYQQKPGKAPKLLIYVASSLQSGVPSRFSGSGSGTEFTLTISSLQPEDFATYYCQQSYSGLDTFGRGTKVEIK
11 | 0.16 nM and 0.161 nM | 0.79 nM |  | ADT1-7-3 (antibody, IgG1, V domains shown) VH: EVQLVESGGGLVKPGGSLRLSCAASGFTFSDYYMSWIRQAPGKGLEWVSYISSSGSTIYYADSVKGRFTISRDNAKNSLYLQMNSLRAEDTAVYYCARVSYAEAFDIWGQGTLVTVSS VL: DIQMTQSPSSLSASVGDRVTIACRAGQSIGTYLNWYQQKPGKAPKLLIYVASSLQSGVPSRFSGSGSGTEFTLTISSLQPEDFATYYCQQSYSGLDTFGRGTKVEIK
12 | 6.3 nM and 6.26 nM | 1700 nM |  | ADT1-7-61 (antibody, IgG1, V domains shown) VH: EVQLVESGGGLVKPGGSLRLSCAASGFTFSDYYMSWIRQAPGKGLEWVSYISSSGSTIYYADSVKGRFTISRDNAKNSLYLQMNSLRAEDTAVYYCARDDYDDAFDIWGQGTLVTVSS VL: DIQMTQSPSSLSASVGDRVTIACRAGQSIGTYLNWYQQKPGKAPKLLIYVASSLQSGVPSRFSGSGSGTEFTLTISSLQPEDFATYYCQQSASELLTFGRGTKVEIK
13 | 0.3 nM and 0.295 nM | 1.1 nM and 1.09 nM |  | ADT1-4-112 (antibody, IgG1, V domains shown) VH: EVQLQQSGPGLVKPSQTLSLTCAISGDSVSSKSAAWNWIRQSPSRGLEWLGRTYYRSKWSTDYAASVKSRITINPDTSKNQLSLQLNSVTPEDTAVYYCARTWVGYVDYWGQGTLVTVSS VL: DIQMTQSPPALSASVGDRVTITCRASQDINDWLAWYQHKPGKAPKLLIYDASSLESGVPLRFSGSGSGTEFTLTISSLQPDDFATYYCQQKYSQPQVTFGQGTRLEIK
14 | 8.4 nM and 8.38 nM | 38 nM and 38.3 nM |  | ADT1-4-138 (antibody, IgG1, V domains shown) VH: EVQLQQSGPGLVKPSQTLSLTCAISGDSVSSKSAAWNWIRQSPSRGLEWLGRTYYRSKWSTDYAASVKSRITINPDTSKNQLSLQLNSVTPEDTAVYYCARTWADYVDVWGQGTLVTVSS VL: DIQMTQSPPALSASVGDRVTITCRASQDINDWLAWYQHKPGKAPKLLIYDASSLESGVPSRFSGSGSGTEFTLTISSLQPDDFATYYCQQRYSTDQVTFGQGTRLEIK
15 | 0.31 nM and 0.313 nM | 0.85 nM and 0.853 nM |  | ADT1-4-143 (antibody, IgG1, V domains shown) VH: EVQLLQSGPGLVKPSQTLSLTCAISGDSVSSKSAAWNWIRQSPSRGLEWLGRTYYRSKWSTDYAASVKSRITINPDTSKNQLSLQLNSVTPEDTAVYYCARTWVGYADVWGQGTLVTVSS VL: DIQMTQSPPALSASVGDRVTITCRASQDINDWLAWYQHKPGKAPKLLIYDASSLESGVPLRFSGSGSGTEFTLTISSLQPDDFATYYCQQRYSTHQVTFGQGTRLVIK

Biological target: Vδ1 TCR on human Vδ1-positive γδ T cells (human), A0A1B0
Experiment: not given

Row | Vδ1 TCR down-regulation (A375 co-culture): % change (at saturation) [%] | Vδ1 TCR down-regulation (A375 co-culture): EC50 [nM] | Vδ1 TCR down-regulation (A375 co-culture): EC95 [nM] | Binder
16 | 81.9 | 0.00606 | 0.0836 | ADT1-4-6/ADT3-2 (bispecific antibody) heavy: EVQLQQSGPGLVKPSQTLSLTCAISGDSVSSKSAAWNWIRQSPSRGLEWLGRTYYRSKWSTDYAASVKSRITINPDTSKNQLSLQLNSVTPEDTAVYYCARTWAGYPDVWGQGTLVTVSSASTKGPSVFPLAPSSKSTSGGTAALGCLVKDYFPEPVTVSWNSGALTSGVHTFPAVLQSSGLYSLSSVVTVPSSSLGTQTYICNVNHKPSNTKVDKKVEPKSCDKTHTCPPCPAPELAGAPSVFLFPPKPKDTLMISRTPEVTCVVVDVSHEDPEVKFNWYVDGVEVHNAKTKPREEQYNSTYRVVSVLTVLHQDWLNGKEYKCKVSNKALPAPIEKTISKAKGQPREPQVYTLPPSRDELEEGPVSLTCLVKGFYPSDIAVEWESTYGPENNYKTTPPVLDSDGSFFLYSKLTVSYWRWYKGNVFSCSVMHEALHNHYTQKSLSLSPG VL: DIQMTQSPPALSASVGDRVTITCRASQDINDWLAWYQHKPGKAPKLLIYDASSLESGVPLRFSGSGSGTEFTLTISSLQPDDFATYYCQQKYKTPQVTFGQGTRLEIK
17 | 75.3 | 0.00798 | 0.496 | ADT1-4-138/ADT3-2 (bispecific antibody) heavy: EVQLQQSGPGLVKPSQTLSLTCAISGDSVSSKSAAWNWIRQSPSRGLEWLGRTYYRSKWSTDYAASVKSRITINPDTSKNQLSLQLNSVTPEDTAVYYCARTWADYVDVWGQGTLVTVSSASTKGPSVFPLAPSSKSTSGGTAALGCLVKDYFPEPVTVSWNSGALTSGVHTFPAVLQSSGLYSLSSVVTVPSSSLGTQTYICNVNHKPSNTKVDKKVEPKSCDKTHTCPPCPAPELAGAPSVFLFPPKPKDTLMISRTPEVTCVVVDVSHEDPEVKFNWYVDGVEVHNAKTKPREEQYNSTYRVVSVLTVLHQDWLNGKEYKCKVSNKALPAPIEKTISKAKGQPREPQVYTLPPSRDELEEGPVSLTCLVKGFYPSDIAVEWESTYGPENNYKTTPPVLDSDGSFFLYSKLTVSYWRWYKGNVFSCSVMHEALHNHYTQKSLSLSPG VL: DIQMTQSPPALSASVGDRVTITCRASQDINDWLAWYQHKPGKAPKLLIYDASSLESGVPSRFSGSGSGTEFTLTISSLQPDDFATYYCQQRYSTDQVTFGQGTRLEIK
